This passage reports Tm results from FireProtDB (doi:10.1093/hmg/ddv370).

The conditions of the data set: Homo sapiens; pH 7.5; Thermal; CD; Tris-HCl; KCl; transition: 2; whole UniProt chain shown.

Several values for one entry are separate records, joined by “and”; a condition that tells them apart may be missing. Equal entries are not always repeated.

B1: Guanylyl cyclase-activating protein 1 wild type, P43080 (protein)
chain: MGNVMEGKSVEELSSTECHQWYKKFMTECPSGQLTLYEFRQFFGLKNLSPSASQYVEQMFETFDFNKDGYIDFMEYVAALSLVLKGKVEQKLRWYFKLYDVDGNGCIDRDELLTIIQAIRAINPCSDTTMTAEEFTDTVFSKIDVNGDGELSLEEFIEGVQKDQMLLDTLTRSLDLTRIVRRLQNGEQDEEGADEAAEAAG
The term Tm denotes the temperature at the midpoint of the melting transition. Take B1: the Tm is 50.1 °C and 51.5 °C.
